Key:
[1] = molecular target: Rabex-5-Rabaptin-5C21 (R2) complex (human) (UniProt Q15276); assay: SAXS; purified R2, R2Δ, R3 and R3Δ complexes at 5 mg/ml in 20 mM Tris–HCl (pH 8.0), 150 mM NaCl, 293 K
[2] = molecular target: Rab5-Rabex-5-Rabaptin-5C21 (R3) complex (human) (UniProt P20339); assay: as above
[3] = molecular target: the molecule itself; assay: crystal structure; Rabex-5Δ-Rabaptin-5C21_(2) (R2Δ) complex, 3.10 Å; hanging drop, 16°C, 2.0 M NaH2PO4/K2HPO4 (pH 7.0), 0.05% n-octyl-β-D-galactopyranoside

Rabex-5-Rabaptin-5C21 (R2) complex (from UniProt Q15276 552-642)
stoichiometry N [1]: 2

Rab5-Rabex-5-Rabaptin-5C21 (R3) complex (from UniProt P20339 15-184; Q15276 552-642)
stoichiometry N [2]: 2

B1: Rabaptin-5 C2-1 domain (residues 552–642) (domain or fragment, human, UniProt Q15276 552-642, looked up)
chain: ETRDQVKKLQLMLRQANDQLEKTMKDKQELEDFIKQSSEDSSHQISALVLRAQASEILLEELQQGLSQAKRDVQEQMAVLMQSREQVSEEL
notes: Rabaptin-5, human, C2-1 domain, residues 552-642; In pET-Duet1 a tag is stated only for the Rabex-5 partner; also called Rabaptin-5C21_(2)
binding result [3]: binds

Source: paper PMC4102244, “Molecular mechanism for Rabex-5 GEF activation by Rabaptin-5” (eLife, 2014)
